Substitutions are numbered along the chain they refer to. Blank lines part the entries; values can stand above or below the binder they belong to.
Columns and labels:
[1] = molecular target: T1, human CD8 alpha (CD8A) on primary human CD8+ T cells (human, UniProt P01732 22-235); experiment: flow cytometry, human CD8+ T cells
T1 construct: whole, on cells; also called hCD8A
Protocol: (§1) Binding of the 190 ELISA hits to human and cynomologous monkey primary CD8 T cells was assessed by flow cytometry. The FN3 domain molecules were diluted to 2 μM and 0.2 μM in PBS and incubated with human or cynomologous monkey CD8+ T cells in 96-well format. After 1 hour at 4 C, the cells were washed once with PBS and then resuspended with an anti-FN3 domain antibody (PAB25) solution. Following this incubation, the cells were washed twice with PBS and a PE conjugated secondary antibody and a viability dye were added. Finally, cells were washed and resuspended in PBS for flow cytometric analysis using a BD Canto Instrument. Cells were gating on live cells and median fluorescence intensity of the bound Centyrins (PE channel) was calculated using Cytobank software.

human CD8A-Fc (in house) = molecular target: T2, human CD8A-Fc (in house) (human, UniProt P01732 22-182, limits assumed); experiment: SPR (ProteOn), captured hCD8A-Fc
T2 construct: captured by goat anti-human Fc on the ProteOn chip; also called hCD8A-Fc; recombinant human CD8 alpha; not shown: linker/tag and Fc of human IgG1

[2] = molecular target: T3, cynomolgus monkey CD8 alpha on primary cynomolgus CD8+ T cells (cynomolgus monkey, UniProt P01732 23-235 (human entry)); experiment: flow cytometry, cyno CD8+ T cells
T3 construct: also called Cyno CD8alpha; cyno CD8A
Protocol: as §1

T3 sequence (P01732 other isoform, or with tags, fused parts or gaps limits assumed): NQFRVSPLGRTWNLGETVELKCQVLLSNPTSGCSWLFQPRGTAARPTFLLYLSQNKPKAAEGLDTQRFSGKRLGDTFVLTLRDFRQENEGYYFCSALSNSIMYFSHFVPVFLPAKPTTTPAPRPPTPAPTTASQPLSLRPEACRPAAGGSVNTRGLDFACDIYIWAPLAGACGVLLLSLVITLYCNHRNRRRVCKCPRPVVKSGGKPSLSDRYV
T2 sequence (P01732 22-182 limits assumed): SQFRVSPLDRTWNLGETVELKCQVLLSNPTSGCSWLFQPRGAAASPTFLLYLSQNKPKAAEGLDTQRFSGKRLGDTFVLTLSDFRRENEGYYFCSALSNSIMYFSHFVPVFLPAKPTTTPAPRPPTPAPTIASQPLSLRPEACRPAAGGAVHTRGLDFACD
T1 sequence (P01732 22-235): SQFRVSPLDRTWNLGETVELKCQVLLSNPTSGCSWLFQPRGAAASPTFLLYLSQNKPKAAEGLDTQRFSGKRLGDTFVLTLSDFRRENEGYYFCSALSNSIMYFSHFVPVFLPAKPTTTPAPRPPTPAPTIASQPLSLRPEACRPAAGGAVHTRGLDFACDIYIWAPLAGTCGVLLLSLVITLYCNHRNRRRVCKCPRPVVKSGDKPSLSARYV

Human T-cell Binding 0.2 uM (MFI) [1]: 548 MFI
Human T-cell Binding 2 uM (MFI) [1]: 4300 MFI
koff (human CD8A-Fc (in house)): 0.0019 s⁻¹
Cyno T-cell Binding 0.2 uM (MFI) [2]: 2100 MFI
Cyno T-cell Binding 2 uM (MFI) [2]: 19700 MFI
B1: P283DR9P1364_E9 (designed binder)
chain: LPAPKNLVVSRVTEDSARLSWTAPDAAFDSFDIAYPEWPTKGEAIVLTVPGSERSYDLTGLKPGTEYFVVINGVKGGWRSFPLSAIFTT
notes: FN3 domain

Human T-cell Binding 0.2 uM (MFI) [1]: 401 MFI
Human T-cell Binding 2 uM (MFI) [1]: 9890 MFI
koff (human CD8A-Fc (in house)): 0.00779 s⁻¹
Cyno T-cell Binding 0.2 uM (MFI) [2]: 2800 MFI
Cyno T-cell Binding 2 uM (MFI) [2]: 47100 MFI
B2: P283DR9P1364_G9 (designed binder)
chain: B1 chain with D32G, A34W, T40V, K41G, F68W, V70N, N72S, W78E, R79Y
notes: FN3 domain

Human T-cell Binding 0.2 uM (MFI) [1]: 261 MFI
Human T-cell Binding 2 uM (MFI) [1]: 8450 MFI
koff (human CD8A-Fc (in house)): 0.000705 s⁻¹
Cyno T-cell Binding 0.2 uM (MFI) [2]: 369 MFI
Cyno T-cell Binding 2 uM (MFI) [2]: 36400 MFI
B3: P283FR9P1366_G5 (designed binder)
chain: B1 chain with D32Q, W38Y, T40A, K41L, V70I, N72I, W78D, R79E
notes: FN3 domain

Human T-cell Binding 0.2 uM (MFI) [1]: 650 MFI
Human T-cell Binding 2 uM (MFI) [1]: 3600 MFI
koff (human CD8A-Fc (in house)): 0.000872 s⁻¹
Cyno T-cell Binding 0.2 uM (MFI) [2]: 4980 MFI
Cyno T-cell Binding 2 uM (MFI) [2]: 39800 MFI
B4: P283FR9P1366_G1 (designed binder)
chain: LPAPKNLVVSRVTEDSARLSWTAPDAAFDSFYISYPELPVEGEAIVLTVPGSERSYDLTGLKPGTEYWVIIWGVKGGATSEPLSAIFTT
notes: FN3 domain

Human T-cell Binding 0.2 uM (MFI) [1]: 720 MFI
Human T-cell Binding 2 uM (MFI) [1]: 6880 MFI
koff (human CD8A-Fc (in house)): 0.00104 s⁻¹
Cyno T-cell Binding 0.2 uM (MFI) [2]: 4700 MFI
Cyno T-cell Binding 2 uM (MFI) [2]: 46400 MFI
B5: P283FR9P1366_F5 (designed binder)
chain: B1 chain with A34G, T40I, F68W, V70I, N72W, W78D, F81E
notes: FN3 domain

Human T-cell Binding 0.2 uM (MFI) [1]: 407 MFI
Human T-cell Binding 2 uM (MFI) [1]: 1820 MFI
koff (human CD8A-Fc (in house)): 0.00207 s⁻¹
Cyno T-cell Binding 0.2 uM (MFI) [2]: 1040 MFI
Cyno T-cell Binding 2 uM (MFI) [2]: 4630 MFI
B6: P283FR9P1366_C3 (designed binder)
chain: B1 chain with D32K, T40D, K41G, V70I, N72Y, W78I, R79L, F81P
notes: FN3 domain

Human T-cell Binding 0.2 uM (MFI) [1]: 7130 MFI
Human T-cell Binding 2 uM (MFI) [1]: 43900 MFI
koff (human CD8A-Fc (in house)): 0.000205 s⁻¹
Cyno T-cell Binding 0.2 uM (MFI) [2]: 19000 MFI
Cyno T-cell Binding 2 uM (MFI) [2]: 81500 MFI
B7: P283FR9P1366_H6 (designed binder)
chain: B1 chain with T40V, K41T, F68W, V70I, N72F, W78E, F81W
notes: FN3 domain

Human T-cell Binding 0.2 uM (MFI) [1]: 567 MFI
Human T-cell Binding 2 uM (MFI) [1]: 13800 MFI
koff (human CD8A-Fc (in house)): 0.00177 s⁻¹
Cyno T-cell Binding 0.2 uM (MFI) [2]: 1240 MFI
Cyno T-cell Binding 2 uM (MFI) [2]: 24400 MFI
B8: P283FR9P1366_H7 (designed binder)
chain: B1 chain with D32Q, W38Y, T40A, K41L, V70I, N72A, W78I, R79Q, F81W
notes: FN3 domain

Human T-cell Binding 0.2 uM (MFI) [1]: 409 MFI
Human T-cell Binding 2 uM (MFI) [1]: 6290 MFI
koff (human CD8A-Fc (in house)): 0.00253 s⁻¹
Cyno T-cell Binding 0.2 uM (MFI) [2]: 769 MFI
Cyno T-cell Binding 2 uM (MFI) [2]: 10900 MFI
B9: P283DR9P1364_G10 (designed binder)
chain: B1 chain with D32S, T40G, K41S, N72F, W78S, R79Q, F81W
notes: FN3 domain

Human T-cell Binding 0.2 uM (MFI) [1]: 516 MFI
Human T-cell Binding 2 uM (MFI) [1]: 8780 MFI
koff (human CD8A-Fc (in house)): 0.00226 s⁻¹
Cyno T-cell Binding 0.2 uM (MFI) [2]: 1650 MFI
Cyno T-cell Binding 2 uM (MFI) [2]: 39400 MFI
B10: P283FR9P1366_A1 (designed binder)
chain: B4 chain with Y32W, S34T, L38W, E41P, W68A, I70F, A78D, T79A
notes: FN3 domain

Human T-cell Binding 0.2 uM (MFI) [1]: 899 MFI
Human T-cell Binding 2 uM (MFI) [1]: 11400 MFI
koff (human CD8A-Fc (in house)): 0.00115 s⁻¹
Cyno T-cell Binding 0.2 uM (MFI) [2]: 4670 MFI
Cyno T-cell Binding 2 uM (MFI) [2]: 51200 MFI
B11: P283FR9P1366_B7 (designed binder)
chain: B4 chain with Y32W, S34T, L38W, E41N, I70V, A78V, T79E, E81P
notes: FN3 domain

Human T-cell Binding 0.2 uM (MFI) [1]: 3600 MFI
Human T-cell Binding 2 uM (MFI) [1]: 27600 MFI
koff (human CD8A-Fc (in house)): 0.000585 s⁻¹
Cyno T-cell Binding 0.2 uM (MFI) [2]: 10900 MFI
Cyno T-cell Binding 2 uM (MFI) [2]: 67800 MFI
B12: P283FR9P1366_A5 (designed binder)
chain: B1 chain with D32W, K41R, N72Y, W78S, R79P, F81P
notes: FN3 domain

Human T-cell Binding 0.2 uM (MFI) [1]: 413 MFI
Human T-cell Binding 2 uM (MFI) [1]: 3390 MFI
koff (human CD8A-Fc (in house)): 0.00134 s⁻¹
Cyno T-cell Binding 0.2 uM (MFI) [2]: 2300 MFI
Cyno T-cell Binding 2 uM (MFI) [2]: 28200 MFI
B13: P283FR9P1366_D8 (designed binder)
chain: B1 chain with D32E, W38I, T40I, K41A, V70I, N72Y, W78D, R79W, F81D
notes: FN3 domain

Human T-cell Binding 0.2 uM (MFI) [1]: 268 MFI
Human T-cell Binding 2 uM (MFI) [1]: 2620 MFI
koff (human CD8A-Fc (in house)): 0.0023 s⁻¹
Cyno T-cell Binding 0.2 uM (MFI) [2]: 418 MFI
Cyno T-cell Binding 2 uM (MFI) [2]: 6000 MFI
B14: P283DR9P1364_H6 (designed binder)
chain: B1 chain with D32I, W38T, T40V, K41R, V70I, N72I, W78Q, R79E
notes: FN3 domain

From patent US20210032312A1 (Janssen / Centocor, published 2021)
